Results published in patent US20250388640A1.

Molecular target: hIL-12 receptor signaling complex (hIL-12Rβ1 and hIL-12Rβ2) (human) (UniProt P42701)
Test: cell-based or functional assay

hIL-12 receptor signaling complex (hIL-12Rβ1 and hIL-12Rβ2) (human), sequence (Q99665 24-862, chain 2 of 2, other chains not shown): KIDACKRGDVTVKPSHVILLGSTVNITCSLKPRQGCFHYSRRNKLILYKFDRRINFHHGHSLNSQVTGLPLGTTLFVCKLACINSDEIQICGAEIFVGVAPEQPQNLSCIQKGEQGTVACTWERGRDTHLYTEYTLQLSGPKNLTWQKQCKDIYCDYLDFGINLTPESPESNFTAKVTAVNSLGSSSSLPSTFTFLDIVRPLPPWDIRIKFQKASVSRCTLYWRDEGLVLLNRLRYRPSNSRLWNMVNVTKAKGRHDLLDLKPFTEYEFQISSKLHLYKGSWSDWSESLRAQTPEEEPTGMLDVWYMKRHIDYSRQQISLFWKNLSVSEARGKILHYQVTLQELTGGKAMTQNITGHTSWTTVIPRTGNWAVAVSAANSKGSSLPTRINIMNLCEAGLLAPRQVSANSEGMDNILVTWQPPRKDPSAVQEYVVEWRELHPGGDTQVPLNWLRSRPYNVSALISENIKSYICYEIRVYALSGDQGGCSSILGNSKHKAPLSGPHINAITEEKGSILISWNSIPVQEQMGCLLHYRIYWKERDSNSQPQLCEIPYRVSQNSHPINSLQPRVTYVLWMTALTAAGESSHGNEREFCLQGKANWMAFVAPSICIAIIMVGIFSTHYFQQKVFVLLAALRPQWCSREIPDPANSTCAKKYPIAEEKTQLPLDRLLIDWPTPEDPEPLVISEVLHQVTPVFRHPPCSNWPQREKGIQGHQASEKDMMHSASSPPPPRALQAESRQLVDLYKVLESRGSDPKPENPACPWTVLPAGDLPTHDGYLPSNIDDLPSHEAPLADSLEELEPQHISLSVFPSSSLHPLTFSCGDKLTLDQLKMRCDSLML

Substance	pSTAT4 [%+] EC50, CD8+ T Cells	pSTAT4 [%+] EC50, CD56hi NK Cells	pSTAT4 [%+] Emax, CD8+ T Cells	pSTAT4 [%+] Emax, CD56hi NK Cells	pSTAT4 [gMFI] EC50, CD8+ T Cells	pSTAT4 [gMFI] EC50, CD56hi NK Cells	pSTAT4 [gMFI] Emax, CD8+ T Cells	pSTAT4 [gMFI] Emax, CD56hi NK Cells
human IL12 mutein of the F82X panel printed as E81A/F82F/K106K in row r9 of Tables 10 and 11 (label printed a second time in r19 with other values) (ligand)	0.00186 µM	0.00227 µM	75.9 %+	78.2 %+	0.00665 µM	0.00912 µM	80100 gMFI	21600 gMFI
human IL12 mutein, hIL-12p40 E81A, F82S with hIL-12p35-8X His (from UniProt P29460 23-328; P29459 23-219) (ligand)	0.86 nM	0.0014 µM	80.5 %+	86.1 %+	0.00384 µM	0.00629 µM	95900 gMFI	26200 gMFI
